± gives the standard deviation.
Assay: protein stability index of a GFP-peptide fusion (GPS, HEK-293T) (PSI 1-6); higher = more stable
[1] = treatment: DMSO, c terminus: a fixed tail appended
[2] = treatment: MLN4924 1 uM, 8 h, c terminus: a fixed tail appended
[3] = treatment: DMSO, c terminus: native
[4] = treatment: MLN4924 1 uM, 8 h, c terminus: native
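Note: 24-mer peptide tiles fused after GFP, lentivirally expressed, FACS-sorted into six equal bins by GFP/DsRed ratio, decoded by Illumina sequencing, PSI is the read-weighted mean bin number.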

Row | Sequence | protein stability index [1] | protein stability index [2] | protein stability index [3] | protein stability index [4]
1 | LQMEVCRLKKEEEDRIVTQNRVFA [CEP70] | 3.98 ± 0.31 | 4.01 ± 0.055 | – | –
2 | LSVEADINGLRRVLDELTLARADL [KRT17] | 2.66 ± 0.26 | 3.04 ± 0.43 | – | –
3 | ELNAIMNKNSTDVKGCSMYVALFP [DCTD] | 2.71 ± 0.26 | 2.35 ± 0.71 | – | –
4 | PPGNVYWPLRGKREAMLEMLLQHQ [SPAG8] | 2.52 ± 0.055 | 2.65 ± 0.3 | – | –
5 | KIIAVGVIDILPNCVSSVYLYYDP [ATE1] | 2.62 ± 0.42 | 3.19 ± 0.43 | – | –
6 | EVAAKNQSLEGDTTKGTSEMSEKR [MLH1] | 5.15 ± 0.26 | 5.46 ± 0.56 | – | –
7 | YSSGEFSSGRKWGDDAPKEEVDTG [INTS4] | 3.1 ± 0.48 | 3.97 ± 0.56 | – | –
8 | RGPRMCRFIRERDRAVNDYPSLYY [CDC25B] | 2.17 ± 0.27 | 2.12 ± 0.39 | – | –
9 | DYIIRNTDRGNDNWLIKYDCPMDS [PI4K2A] | 2.81 ± 0.25 | 2.88 ± 0.12 | – | –
10 | PLCMAVLTTASIIQLGVTPPGYSA [SLC6A17] | 3.14 ± 0.94 | 2.94 ± 0.4 | – | –
11 | RQGIQLNKTPGAPESSALQPPPQS [WAS] | 4.74 ± 0.6 | 4.8 ± 0.094 | – | –
12 | DPDEEHLKKSSQVPRTEAPAPASS [PDLIM7] | 5.39 ± 0.17 | 5.5 ± 0.25 | – | –
13 | AWLEGRIRQEFDKLREFLRVEEQA [TRIM35] | 2.81 ± 0.4 | 2.94 ± 0.5 | – | –
14 | SSPGNNNGTSIEDGQIPEIIFYT [BTBD1] | – | – | 3.14 ± 0.46 | 3.44 ± 0.56
15 | ALVYSITAQSTFNDLQDLREQILR [RAP1B] | 2.27 ± 0.33 | 2.42 ± 0.4 | – | –
16 | EFLTKHLRADNAFMLLTQARLFDE [BTBD1] | 2.54 ± 0.25 | 2.18 ± 0.36 | – | –
17 | ARPSETFARFCKSQESALGNTVPA [DNAAF3] | 3.12 ± 0.26 | 2.94 ± 0.26 | – | –
18 | PEPPPVSFQPYHPLHFRGSNGMS [TENT5D] | – | – | 3.77 ± 0.29 | 3.91 ± 0.22
19 | FRNLVADRVLNYTSWSQHCPWEPQ [SPAG8] | 2.21 ± 0.21 | 2.36 ± 0.23 | – | –
20 | ESPRWLYSQGRLSEAEEALYLIAK [SLC22A15] | 2.75 ± 0.21 | 2.66 ± 0.45 | – | –
21 | GREEKCVWKHGITPPLKNVRKKRF [TAF7L] | 3.98 ± 0.34 | 4.03 ± 0.41 | – | –
22 | HDPLYGKLFSTYLRPPHTSRGTSQ [LPCAT4] | 3.27 ± 0.34 | 3.76 ± 0.21 | – | –
23 | EEERAFWMENNGHVAGEQMLEDGP [CCDC70] | 5.37 ± 0.35 | 5.2 ± 0.45 | – | –

Row | Sequence | protein stability index [1] | protein stability index [2] | protein stability index [3] | protein stability index [4]
24 | EKRLEGQEEEEDNRDSSMKLSFRA [CHGA] | 5.1 ± 0.75 | 5.19 ± 0.38 | – | –
25 | IYHLDGQETPYLVKLPLPAERVTL [DVL3] | 2.28 ± 0.24 | 2.34 ± 0.26 | – | –
26 | SGTQYVSTRQTQSWTAVTPQQTWA [C18orf25] | 2.7 ± 0.29 | 3 ± 0.51 | – | –
27 | YGHDYPRAAYQQVIQPALPGQPLP [TRAF3IP2] | 2.55 ± 0.71 | 3.25 ± 0.69 | – | –
28 | RSMVFKDVLLLGNDYIVPRHCPEL [HNF4A] | 2.29 ± 0.14 | 2.23 ± 0.32 | – | –
29 | DALNAYVCKGLPQHEEICLGLFTL [INTS3] | 2.81 ± 0.64 | 2.67 ± 0.74 | – | –
30 | IQPGPFRAVLKYLYTGELDENERD [RHOBTB2] | 3.37 ± 0.53 | 3.43 ± 0.25 | – | –
31 | MGREKCHQYWPAERSARYQYFVVD [PTPRD] | 2.3 ± 0.34 | 2.33 ± 0.14 | – | –
32 | KKIVHYTCFDQRKRANAAFLIGAY [CDC14A] | 2.37 ± 0.31 | 2.07 ± 0.83 | – | –
33 | AAANGGHVKIVKLLLAHKADVNAQ [ANKRD17] | 2.51 ± 0.31 | 2.68 ± 0.18 | – | –
34 | QAHGSEGLTFQGLLPLTELSVCPL [PLEKHN1] | 3.08 ± 0.29 | 3.05 ± 0.19 | – | –
35 | RSHFLWKEPATMSWLEENVHEVLQ [TCF25] | 2.43 ± 0.78 | 2.69 ± 0.39 | – | –
36 | IRLGIEGYPTYKEKVKKRPGGRPE [BTBD10] | 3.41 ± 0.54 | 3.42 ± 0.41 | – | –
37 | ASNWSTTGFGQGQGYTINVPWNQV [HDAC6] | 2.14 ± 0.47 | 2.22 ± 0.43 | – | –
38 | LSLESEGAGEGAAASPELSALEEA [TPPP] | 5.52 ± 0.17 | 5.58 ± 0.17 | – | –
39 | FNKDLVQDCGFEHLVPVIEMWADQ [CEP70] | 2.45 ± 0.45 | 2.65 ± 0.61 | – | –
40 | ALCMLAQSSPSFAEKCLDFLVDMF [INTS4] | 1.86 ± 0.1 | 2.35 ± 0.064 | – | –
41 | ETRVTSGSMEALNLKQLRKRGSIP [PPFIA4] | 4.6 ± 0.07 | 4.75 ± 0.22 | – | –
42 | QSSKRSSRSVEDDKEGHLVCRIGD [CLK3] | 5.3 ± 0.43 | 5.17 ± 0.25 | – | –
43 | ENAAFKDVALVLTVLLEEETLEAS [TOR1AIP2] | 2.31 ± 0.33 | 2.4 ± 0.34 | – | –
44 | GPRFGPRNDKIKHVQNQVDEVIDV [VAMP4] | 4.24 ± 0.49 | 4.63 ± 0.22 | – | –
45 | KESNANPIFMRKDTKMSFQWRIRN [DPCD] | 2.83 ± 0.15 | 3.01 ± 0.24 | – | –
46 | YLTVVFEHDAWFIFFMAAFAFSNG [SLC29A1] | 3.18 ± 0.41 | 2.92 ± 0.59 | – | –

Row | Sequence | protein stability index [1] | protein stability index [2] | protein stability index [3] | protein stability index [4]
47 | SGLRGGILIELAMRGRIYLEPPTM [GOLPH3L] | 3.09 ± 0.41 | 2.74 ± 0.76 | – | –
48 | NDDSADYQHFLQDCVDGLFKEVKE [DLC1] | 2.96 ± 0.5 | 3.54 ± 0.62 | – | –
49 | DDVIVQGDIQELYDTTLALGHAAA [GLT8D2] | 4.47 ± 0.39 | 4.42 ± 0.088 | – | –
50 | PALAPVPRNSCITCPQCHRSLILD [TRIM9] | 3.31 ± 0.3 | 3.37 ± 0.33 | – | –
51 | SDYISEFRFAPNHTKELEDKVIEL [EPB41L3] | 2.83 ± 0.5 | 3.44 ± 0.49 | – | –
52 | WPGASGSAQSLDRLGIMGAGLGA [ATP23] | – | – | 2.55 ± 0.26 | 2.43 ± 0.37
53 | RRHCPLPQATFWGLVTPRSWSCHT [SOAT2] | 2.46 ± 0.4 | 2.25 ± 0.17 | – | –
54 | PDMSVTKVVVHKETEITPEDGED [EPB41L3] | – | – | 5.5 ± 0.35 | 5.57 ± 0.29
55 | GHLFPPPTPIFAGGANDRWVRSVS [WSB1] | 2.66 ± 0.18 | 2.39 ± 0.4 | – | –
56 | AALKQAIKDKEAPLHVAQTRLYLR [TEKT4] | 3.06 ± 0.15 | 3.07 ± 0.18 | – | –
57 | HGVELHSDVIEYAKQKLDFFIRTS [PCMTD2] | 2.37 ± 0.2 | 2.48 ± 0.29 | – | –
58 | LSRDTVQESYENVDSLESHIPSQE [ZNF263] | 5.26 ± 0.13 | 5.41 ± 0.13 | – | –
59 | ALMHVMQKRSRAIHSSDEGEDQAG [WAS] | 4.25 ± 0.27 | 4.49 ± 0.13 | – | –
60 | FAIGVCTGLVGLFVDFFVRLFTQL [CLCN6] | 2.65 ± 0.52 | 2.32 ± 0.56 | – | –
61 | FFEILRLFFPVIYDVKYLMKSCKN [CNOT7] | 2.37 ± 0.9 | 2.87 ± 0.048 | – | –
62 | QILELLVLEQFLTILPQEIQSRVQ [ZNF263] | 3.06 ± 0.47 | 3.43 ± 0.49 | – | –
63 | YSSSKGSLRLCDMRAAALCDKHSK [PPP2R2C] | 2.53 ± 0.8 | 3.11 ± 0.71 | – | –
64 | FIDGKFLPCSSYIDSYDPSTGEVY [ALDH8A1] | 2.44 ± 1.2 | 2.66 ± 0.11 | – | –
65 | KYPPDRECIYIIEAAPRQCIELYF [NETO1] | 3.13 ± 0.77 | 2.7 ± 1.3 | – | –
66 | RSVDVVVSSVFLLTLSIAFICCAQ [PHTF1] | 3.33 ± 0.59 | 3.35 ± 0.6 | – | –
67 | THHKLCTFILKNPPENSDSGTGKK [EIF5] | 3.95 ± 0.27 | 4.28 ± 0.18 | – | –
68 | DGKLRLLTKLLASKSKEEVSSLIS [FEM1C] | 2.33 ± 0.28 | 1.92 ± 0.39 | – | –
69 | ETTSQQERLQAIAEKRKRQAEIEN [PALM] | 4.94 ± 0.14 | 5.06 ± 0.12 | – | –

Row | Sequence | protein stability index [1] | protein stability index [2] | protein stability index [3] | protein stability index [4]
70 | RHSFRKHLYLLRGLPGSGKTTLAR [N4BP2L1] | 2.5 ± 0.17 | 2.54 ± 0.37 | – | –
71 | VHGIRSVGTAAVNMCLVATGGADA [IMPA1] | 2.78 ± 0.35 | 2.93 ± 0.39 | – | –
72 | GMRDADYIAAFLHVLLPVALEFQP [HDAC6] | 3.02 ± 0.47 | 2.96 ± 0.42 | – | –
73 | HLADLVSYSIQKVIGFAKMIPGFR [VDR] | 4.2 ± 0.43 | 4.18 ± 0.25 | – | –
74 | LAREGVAAFYKGYVPNMLGIIPYA [SLC25A25] | 2.42 ± 0.49 | 2.38 ± 0.27 | – | –
75 | VSAEGSHPDPAPFCADNPSELPPP [DVL3] | 5.25 ± 0.27 | 5.32 ± 0.18 | – | –
76 | CATDTKNVQFVFDAVTDVIIKNNL [GNAI1] | 2 ± 0.28 | 2.43 ± 0.22 | – | –
77 | VYLSPRDDGYSTKDSYSSRDYPSS [RBMX] | 3.21 ± 0.27 | 3.38 ± 0.43 | – | –
78 | EERFRPLTFHGLILRSQLVTLLVR [CLCN6] | 2.79 ± 0.63 | 2.51 ± 0.36 | – | –
79 | AEDFSTMDEISEKLKKGICEALED [MATN2] | 5.22 ± 0.32 | 5 ± 0.33 | – | –
80 | HEEQLQRLKLLKDREVDAATSATS [FBF1] | 5.18 ± 0.28 | 5.25 ± 0.24 | – | –
81 | STQEPQSPREGEELKPEDKDPRDP [GNAS] | 5.59 ± 0.34 | 5.42 ± 0.48 | – | –
82 | ETKGQINNSIKDLTDGHFENILAD [SERPINB5] | 4.84 ± 0.42 | 4.9 ± 0.32 | – | –
83 | HHKVYDLTKFLEEHPGGEEVLREQ [CYB5A] | 4.44 ± 0.27 | 4.65 ± 0.19 | – | –
84 | GYWRVRLWNGDKYAATTTPFTPLH [TRIM39] | 2.08 ± 0.42 | 2.35 ± 0.93 | – | –
85 | DPLSLLDDSKFPIEDTPLVPVSFI [PCDHGA10] | 2.85 ± 0.49 | 2.97 ± 0.3 | – | –
86 | KTSLWEEENALWEEERAFWMENNG [CCDC70] | 4 ± 0.12 | 3.94 ± 0.19 | – | –
87 | VELPIVDSLHPRPPYLPLAVPEDL [FUT8] | 4.24 ± 0.31 | 4.54 ± 0.22 | – | –
88 | TNVESQLAEIRCDLERQNQEYQVL [KRT34] | 4.32 ± 0.21 | 4.27 ± 0.17 | – | –
89 | PDPTPPEPEEEILGSDDEEQEDPA [SRPK2] | 5.62 ± 0.33 | 5.53 ± 0.21 | – | –

Reference: the supplement of paper PMC10567573
